# Assay: label from the status in PepcDB records
# 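Also: failed if final PepcDB status was selected cloned or expressed and not failed if soluble or beyond.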
row,Sequence,protein production
1,MIDTSIFQDKTAVYYTLGCKLNFSETSTIGKVLREAGVRTVRKGEKADICVVNTCSVTEVADKKCRQAIHRLVKQHPGAFVVVTGCYAQLKPDAVAKIEGVDVVLGAEQKKDLLQYLGDLRKHESGEAHTSALKDIRSFAPSCSRGDRTRFFLKVQDGCDYYCSYCTIPFARGRSRNGSIASLVEQARQAAAEGGKEIVLTGVNIGDFGKSTGETFFDLVKALDDVECIERYRISSIEPNLLTDEIIEFVSRSKRFMPHFHIPLQSGSDEVLKLMRRRYDTALFASKVKRIKEVMPDAFIGVDVIVGTRGETEEYFEQAYRFIQSLDVTQLHVFSYSERPGTQALKIEHVVSSEEKHRRSRLLLDLSDEKTRAFYARHIGQTMPVLLERSKPGTPMHGFTPNYIRVEVPHDDALDNQVIPVRMGDFNEEGTALSGAFGDK,failed
2,MNALALGAKSFPIFWHYWNPIWGYYLSRNVMRPISQFLPMWLAVLVTFLVSGALHDLAIALVKWQAMFFFTPWFGIMGVIVIASNKYGLSYGALPWIMRAMINLLFILSSFSLTELTQGLLRLSA,failed
3,MKKWRFLGIDDSFDDRKCCVVGCVTCGGYVEGFLYTEIDIDGLDATDKLISMVRRSKFREQIKCIFLPGITLGGFNLVDIQRVYRETKIPVVVVMRRKPDMEEFDSAMRNLENYELRRKIVEVAGEIHRIGDIYIQTAGLTPSEAEKLVKASLIKGNMPEPVRISHLVASAIIHGESR,not failed
4,VRPDGRGKVTGELKYMTDLSFPGMLYGKVLRSAYPHAEIVSVCTIKAEKMEGVQAVVTHKDVPGLNRFGIVIPDQPVLCEDRVRYVGDAIAAVAAETEEIAEAALELIQVEYKELEVMDSPEKALRPNAQRLHEDGNILHRAFFSNGDVEEGFQASDTVFEETYELPRQMHTYMETEGGVAVPEDDGGFTMYAGTQHGYKDRFQLARIFDIPEEKIRIVSSPMGGSFGGKDELNIQPYAALLALKSGRPVKIHQTRKESVRSGIKRHPMKITIKTGADHSGNLLAHDVKIVADTGAYATLGPAVLDFSVEHAAGPYRIPNIRTEGISVFTNNGVAGEFRGFGGNQITFALETHLDRLSGMLGIDPLELRRKNIRKPHDLGPLEHRIAPTDGAAQVLNAISKSPILKKTSRNCGYLQRGTGAAITMHGGGLGFGRMDAAGGRLSLSSEGKITASFGFEECGQGILAAIEQIVMEELGCAAEDISIVIGDTAKVPKSGSSTASRGTSMVWHAIQRLKKPFLAQLKKRAAEWSGCSAENLIPGAAGLRDKNTKALVVTYKELAEKGPLAEETAFDFPTTPDPVVGGHFLYSFGAAAVEVEVDLLTGDVKLIDCEHAIAAGPVVSPQGYRGQIEGGAAMALGYTLMEEAKMTDGRYAAENLDHYLIPGIKDVPDMKLIAIEDLMKGDVYGPRGVGEIGTIAITPAIVKAVHDAVGCWINKLPISREELLEAIDRKGL,failed
5,MTEVAHTASGSTNTMDREGLPVAETTCAPGLPLWARPEARTALGDTLRPGGFSLTDRLATLAGVHPGWRVLDVGCGTGATVLHLRQRYGASAFGCDRSTSLTPGSNNHKGLPVIAADAANLPFADGSMKMVFCECVLSLLVKPLEVLRGLRRLLVPGGLLGVSDLYLRGEGHARVTEGSCLAWQATRMRIESLLHEAGFALHTFEDHSPLLRETAARLALSGALHGGAMNCGERAFPSRDACRRCSPEGIAAPPQATPCSMTECSFSPPATRAVTEQVARPGYFLLLAQSLKGTRED,failed
6,TVLYVHGGAWFQDPLENHFEYLDLLVDALDARVIMPVYPKIPHRDYRTTFELLTKIYKRLLTKIDEPENLVIIGDSAGGQIALAFAQMLKKEQLSQPGHIVLISPVLDATFKNPEARKYEKEDPMLGIDGSKYLVELWAGDAPLDDYKMSPMNGDLEGLGHITLTVGTKETLYPDAVKFSHMLNDKGIKHQFIPGYNLFHIYPLFPIPERQRFLEQLKKII,failed
7,MRNIYSIYKEHYKALISLGLPIVIGQIGVIVLGFADTLMIGHHSTIELGAASFVNNVFNLVIIFSTGFSYGLTPIVGGLYGTHQYASAGQALRNSLLANLLVAFLLTIGMTVLYFNVGNLGQPEELIPLIKPYYLVLLASLVFVMLFNGFKQFTDGITDTKTAMWILLGGNVLNIIGNYILIYGKLGLPEMGLLGAGISTLFSRIMMVVVFIIVFMRSPRFLRFKLGFYRLGWSKAIFGRLNSLGWPIAFQMGMETASFSLSAVMIGWLGTIALASHQVMLAISQFTFMMYYGMGAAVAVRVSNFNGQGDILNVRRSAYAGFHLMMALGVVLSSIVFLCRNYLGGWFTDSTEVAAMVTSLILPFLVYQFGDGLQITFANALRGISDVKLMMLIAFIAYFLISLPVGYFCGFVLEWGIIGVWMAFPFGLTSAGLMLWWRFHHKTKLPPSIQNS,not failed
8,MEELLREYLPILVFLAVAAGLGLVLILAAVVLAVRNPDPEKVSAYECGFNAFDDARMKFDVRFYLVSILFIIFDLEIAFLFPWAVGFKDMSDVGFWSMMVFLGVLTIGFAYEWKKGALEWQ,failed
9,MKVFFNKIPLALSSLVLALFSLSNQISQYTLFSQGIWLIAVFGFFLVLGRPIIGYRQTQEDLHNPVIASAFPSFFMAAFLFAGRLPLAQADLSIAWIVVLIGLYIAYIIFFSLRFLRPLVLEQVYPSWFVVYVGPAINLVTIPDSIPNSTKALILGLTGLATLALFPLIFWRMRRLAIPQPVLPILAILAAPLALLITSSIKSGQKPDTILLVGLLIFSQLFFFFALGLFTRLVNKGFVPLFAAFSFPLVNSINAFKAATTSLGLVNPATQLVYKVEFVFVLVIMTYLLYHFLKLLYKALIQALNTKKQAGSV,failed
10,AKAPQKKHKVLLQQFNTGDERAQKRQPIRGSDEVLFKVYCMDHTYTTIRVPVATSVKEVISAVADKLGSGEGLIIVKMSSGGEKVVLKPNDVSVFTTLTINGRLFACPREQFDSLTPLPEQEGPTVGTVGTFELMSSKDLAYQMTIYDWELFNCVHELELIYHTFGRHNFKKTTANLDLFLRRFNEIQFWVVTEICLCSQLSKRVQLLKKFIKIAAHCKEYKNLNSFFAIVMGLSNVAVSRLALTWEKLPSKFKKFYAEFESLMDPSRNHRAYRLTVAKLEPPLIPFMPLLIKDMTFTHEGNKTFIDNLVNFEKMRMIANTARTVRYYRSQPFNPDAAQANKNHQDVRSYVRQLNVIDNQRTLSQMSHRLEPRRP,failed
11,MEVQETRVQTDRVLTIPNILSMARLVGVPVFLWLILRPEFGGPKSDGWALLVLALSGISDYLDGKLARRWNQISSLGRLLDPAADRLYILSTLVGLTWREILPIWLTAALLARELVLLVMVGILRRHGYPPPQVNFLGKAATFNLMYAFPLLLLSDSSGWIGSLAAIFGWAFAGWGTTLYWWAGVLYMVQVRRLVRADAVAD,failed
12,MAGAMRKMAVYLGLVEDDGYDGRGFDPDDDFEPELDPEPERDRRRHEPPHQSHQALHPQRDESVRVVQPPMQRDPVPHSASLPAESVRPARIAPVASITQERQSLEKNAPVIMPKVVSEREPYRITTLHPRTYNEARTIGEHFREGTPVIMNLTEMDDTDAKRLVDFAAGLVFGLHGSIERVTQKVFLLSPANVDVTAEDKARIAEGGFFNQSLEHHHHHH,not failed
13,QIAELPYAMRINNSFEARKSPHAFVNLLNYILLEKSGADIACTALFDSANGFDEKITMRDIINNYPFPNTFKVIELSGKDIKLAIERSASYFDIVNHKITVNKEFLEPKPQHFNYDIFAGIQYTIHVSHPYGERVSDLLINDAPIQSDQIYTICVNNYRAVGGGNYDMYVNKPVIKDIQIEGAQLLIDYLSHNDLSQIPQVIDFNVVK,failed
14,MSLGRFVRHALITAGTKGLGKQVTEKLLAKGYSVTVTYHSDTTAMETMKETYKDVEERLQFVQADVTKKEDLHKIVEEAMSHFGKIDFLINNAGPYVFERKKLVDYEEDEWNEMIQGNLTAVFHLLKLVVPVMRKQNFGRIINYGFQGADSAPGWIYRSAFAAAKVGLVSLTKTVAYEEAEYGITANMVCPGDIIGEMKEATIQEARQLKEHNTPIGRSGTGEDIARTISFLCEDDSDMITGTIIEVTGAVDVIHREGHHHHHH,not failed
15,EFYCEVLLLDESKLTLTTQQQGIKKSTKGSVVLDHVFHHVNLVEIDYFGLRYCDRSHQTYWLDPAKTLAEHKELINTGPPYTLYFGIK,failed
16,MMEMITIKPGKITVQANPNMPKEVAELFRKQHYEIVGRHSGVKLCHWLKKSLTEGRFCYKQKFYGIHSHRCLQMTPVLAWCTHNCIFCWRPMENFLGTELPQPWDDPAFIVEESIKAQRKLLIGYKGNPKVDKKKFEEAWNPTHAAISLSGEPMLYPYMGDLVEEFHKRGFTTFIVTNGTIPERLEEMIKEDKLPTQLYVSITAPDIETYNSVNIPMIPDGWERILRFLELMRDLPTRTVVRLTLVKGENMHSPEKYAKLILKARPMFVEAKAYMFVGYSRNRLTINNMPSHQDIREFAEALVKHLPGYHIEDEYEPSRVVLIMRDDVDPQGTGVEGRFIKH,not failed
17,MVLPPVFYLARMWLMSQDSRVFFRIFFGIGLVLILISVVIFYNQFTYSKDAIHTEGVIVDTVWHSSHSHRTGKNGSWYPVVAFRPTPDYTLIFNSSIGSDFYEDSEGDKVNVYYSPGHPEKAEINNPWVNFFKWGFIGIMGVIFISVGLLISMPSSKKTRRKRKSRP,failed
18,MSDKHDVIVAGAGPAGAQCARDLAERGYDVVVLEAEPEDEFPRQSNKSTAGTFASMMGAFGVPDDVVMQYTDDVVLESPHEYFVQDQPGAVLEFAEFKQWLVAAGEQQGAEYRFEARVNNPITEGGEIVGVKYDGDEEVYGDIIIDATGPAAPLAKKLGVTDLRRSNQAIGIEWEMENVAVDHEGYADLSDAMMLRLDHDLAPGGYSWIFHTGADTAKVGICYIQNESYQRFGDASKSIDDHLDYWMETDPRLADATKLAGKQHRGSAHIQLPANFSTDNFMAIGDTVPTVDPLWGEGIHKCMESARAAAITADRCFMGDDRDTSADALSIYDDLWHKRVAPNARMRLTMTQLLYLASNERYDRLMSDLQTADVGTLSGANEGGLRSLLEFVHTEDVPLLARFARDRLRA,failed
19,MIWIILASFLMYSIFVMWFSWYKTRGTDLSSSDGYFLGGRSLTGIVIASSLILTNLSTEQVVGLNGQAFGESMVVMAWEVTAPIALILMAFVFLPRYLKLGITTIPDFLEQRFDLRTRQIVSVLFLLGYATVFLPTVLYSGALVIDSIFSLSSVMDISPFMIVLCISIAIGIISCGYVILGGLKACAMSDTINGIGLIIGGLLIPILALFVLGRGDFASGVGELVSANPTKLNAIGNDQASVPWAVLLTGLLFNNLFYWCTNQSIIQRTLAAKNLAEGQKGVLFAGMFKIFGAAFLVLPGIIAYLLYGDVLANADMAYPSLVIDVMPVALSGFLAAVLFGAILSSFNNVLNSSITLFTLDIYKPIFKPNAKEPELVKAGRIFAACLAITAVVIAPFILYAPQGLYYFLQEMNGFYSLPIIAMVIVGFFSKYVPASAPKVLVAVHVVLYAGSKVVLGEVNFLYVLSVLFPINVLVMLIVGRLKPRETSFVLPTANKVDLTPWKYAKPFSAFILLTMLGVYTFFSPLGVAESSGGYTIYQFIFFIVTLAFIGGVVLFWKKTDRIRGGRVPLNQMYPFNQKSG,failed
20,PATCPIVPGQEMIIEISKGRSGLGLSIVGGKDTPLNAIVIHEVYEEGAAARDGRLWAGDQILEVNGVDLRNSSHEEAITALRQTPQKVRLVVYRDEAHYRDEE,not failed
21,MSIRPATHAGSWYSNRAQELSQQLHTYLIKSTLKGPIHNARIIICPHAGYRYCGPTMAYSYASLDLNRNVKRIFILGPSHHIYFKNQILVSAFSELETPLGNLKVDTDLCKTLIQKEYPENGKKLFKPMDHDTDMAEHSLEMQLPMLVETLKWREISLDTVKVFPMMVSHNSVDVDRCIGNILSEYIKDPNNLFIVSSDFCHWGRRFQYTGYVGSKEELNDAIQEETEVEMLTARSKLSHHQVPIWQSIEIMDRYAMKTLSDTPNGERYDAWKQYLEITGNTICGEKPISVILSALSKIRDAGPSGIKFQWPNYSQSSHVTSIDDSSVSYASGYVTIG,failed

# Reference: a protein production outcome set (Wang et al. 2014)
